In patent US20250376519A1 (JIANGSU HENGRUI PHARMACEUTICALS, published 2025):

T1: human DLL3 on cells (human, UniProt Q9NYJ7 27-618)
T1 construct: Endogenous on H1184 and SHP77; Cell line is named under assay; also called H1184; DLL3/H82
T1 sequence: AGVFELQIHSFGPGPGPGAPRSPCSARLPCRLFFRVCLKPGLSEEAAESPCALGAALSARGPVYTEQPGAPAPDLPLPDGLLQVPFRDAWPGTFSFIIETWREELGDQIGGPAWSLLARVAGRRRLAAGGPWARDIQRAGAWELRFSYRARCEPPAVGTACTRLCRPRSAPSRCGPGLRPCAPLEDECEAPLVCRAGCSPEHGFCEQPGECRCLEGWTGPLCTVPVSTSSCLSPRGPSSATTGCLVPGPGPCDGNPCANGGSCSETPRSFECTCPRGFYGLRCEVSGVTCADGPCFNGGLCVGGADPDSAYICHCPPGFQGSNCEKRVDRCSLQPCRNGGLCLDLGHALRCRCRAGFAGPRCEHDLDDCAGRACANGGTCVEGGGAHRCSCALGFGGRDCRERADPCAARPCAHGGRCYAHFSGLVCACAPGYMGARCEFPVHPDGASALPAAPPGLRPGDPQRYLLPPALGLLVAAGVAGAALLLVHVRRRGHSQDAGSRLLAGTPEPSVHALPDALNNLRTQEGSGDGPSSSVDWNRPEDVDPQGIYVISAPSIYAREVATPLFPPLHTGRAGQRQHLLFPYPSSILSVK

T2: human DLL3 (ACRO, DLL3-H52H4) (human, UniProt Q9NYJ7 27-492)
T2 construct: Bought
T2 sequence: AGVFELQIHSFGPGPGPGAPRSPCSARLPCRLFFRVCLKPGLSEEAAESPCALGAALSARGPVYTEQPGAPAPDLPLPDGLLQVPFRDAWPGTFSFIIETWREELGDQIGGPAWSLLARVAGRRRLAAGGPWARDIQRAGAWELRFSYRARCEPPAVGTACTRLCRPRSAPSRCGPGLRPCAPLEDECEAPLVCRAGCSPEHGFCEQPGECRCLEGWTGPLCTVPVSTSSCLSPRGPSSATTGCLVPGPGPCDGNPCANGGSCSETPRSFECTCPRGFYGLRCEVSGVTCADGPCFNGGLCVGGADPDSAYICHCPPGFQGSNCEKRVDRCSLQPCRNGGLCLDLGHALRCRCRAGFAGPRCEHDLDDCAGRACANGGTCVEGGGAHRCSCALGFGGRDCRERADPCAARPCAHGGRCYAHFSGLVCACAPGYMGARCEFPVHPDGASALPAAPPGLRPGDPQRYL


How the values were obtained:
[1] = target: T1, human DLL3 on cells; test: flow cytometry, DLL3/H82 cells; parameters: key to Emax: geometric mean fluorescence intensity (flow cytometry)
Description: The plates were centrifuged at 300 g for 5 min, and the supernatant was removed. Different concentrations of test antibodies were added at 100 μL/well. The plates were incubated in the dark in a refrigerator at 4° C. for 1 h. After 3 centrifugal washes at 300 g, working concentrations of APC anti-human IgG Fc (BioLegend, 410712) or PE F(ab′)2-goat anti-human IgG (invitrogen, H10104) were added. The plates were incubated in the dark in a refrigerator at 4° C. for 40 min. After 3 centrifugal washes at 300 g, the geometric mean fluorescence intensity was measured on an Invitrogen flow cytometer, and the EC50 values for the binding of the antibodies to DLL3-expressing cells were calculated.

[2] = target: T2, human DLL3 (ACRO, DLL3-H52H4); test: SPR Biacore 8K, Ab captured on Protein A
Excerpt: Test antibodies were affinity-captured with a Protein A biosensor chip (Cat. #29127556, Cytiva) for 18 seconds, and then the antigens human DLL3 (ACRO, DLL3-H52H4), cynomolgus monkey DLL3 (KACTUS, DLL-RM103), mouse DLL3 (KACTUS, DLL-MM103), human CD3D&3E (ACRO, CDD-H52W1), and monkey CD3D&3E (ACRO, CDD-C52W4) were allowed to flow through the surface of the chip for 180 seconds, followed by 600 seconds of dissociation. Reaction signals were detected in real time using a Biacore 8K (Cytiva) instrument to obtain association and dissociation curves. After the dissociation in each experimental cycle, the chip was washed and regenerated with a 10 mM glycine-hydrochloric acid solution (pH 1.5, Cat. #BR-1003-54, Cytiva). Data fitting was performed using a 1:1 Model.

EC50 [1] | Emax [1] | Kd [2] | koff [2] | kon [2] | Binder
0.65 nM | 5570 | 0.969 nM | 0.000907 s⁻¹ | 935000 M⁻¹ s⁻¹ | hu30L2H5 (antibody, human IgG1, kappa, V domains shown) VH: EVRLVQSGAEVKKPGASVKVSCKASGYTFTDYYMNWVRQAPGQSLEWMGIINPYTGDTSYNQKFRGRVTLTVDKSASTAYMELSSLRSEDTAVYYCARYHYGPHLEGYFDVWGQGTTVTVSS VL: DIVMTQSPDSLAVSLGERATINCKASENVGYVSWYQQKPGQPPKLLIYGASNRYTGVPDRFSGSGSATDFTLTISSLQAEDVAVYHCGQSYSYPLTFGQGTKLEIKR
0.69 nM | 5420 | 1.08 nM | 0.000988 s⁻¹ | 915000 M⁻¹ s⁻¹ | hu30L2H6 (antibody, human IgG1, kappa, V domains shown) VH: EVRLVQSGAEVKKPGASVKVSCKASGYTFTDYYMNWVRQAPGQSLEWMGIINPYNVDTSYNQKFRGRVTLTVDKSASTAYMELSSLRSEDTAVYYCARYHYGPHLEGYFDVWGQGTTVTVSS VL: DIVMTQSPDSLAVSLGERATINCKASENVGYVSWYQQKPGQPPKLLIYGASNRYTGVPDRFSGSGSATDFTLTISSLQAEDVAVYHCGQSYSYPLTFGQGTKLEIKR
– | – | 2.05 nM | 0.000949 s⁻¹ | 464000 M⁻¹ s⁻¹ | hu30L5H10 (antibody, human IgG1, kappa, V domains shown) VH: EVRLVQSGAEVKKPGASVKVSCKASGYTFTDYYMNWVRQSHGQSLEWMGIINPYTGDTSYNQKFRGRVTLTVDKSASTAYMELSSLRSEDTAVYYCARYHYGPHLEGYFDVWGQGTTVTVSS VL: DIQMTQSPSSLSASVGDRVTITCKASENVGYVSWYQQKPGKSPKLLIYGASNRYTGVPDRFSGSGSGTDFTLTISSLQPEDFATYYCGQSYSYPLTFGSGTKLEIKR
– | – | 3.06 nM | 0.0012 s⁻¹ | 391000 M⁻¹ s⁻¹ | hu30L5H11 (antibody, human IgG1, kappa, V domains shown) VH: EVRLVQFGAVVKKPGASVKVSCKASGYTFTDYYMNWVRQAPGQSLEWMGIINPYTGDTSYNQKFRGRVTLTVDKSSSTAYMELSSLTSEDTAVYYCARYHYGPHLEGYFDVWGQGTTVTVSS VL: DIQMTQSPSSLSASVGDRVTITCKASENVGYVSWYQQKPGKSPKLLIYGASNRYTGVPDRFSGSGSGTDFTLTISSLQPEDFATYYCGQSYSYPLTFGSGTKLEIKR

The remaining lines, values behind:

Binder | EC50 [1] | Emax [1] | Kd [2] | koff [2] | kon [2]
hu30L2H2 (antibody, human IgG1, kappa) heavy: not shown light: DIVMTQSPDSLAVSLGERATINCKASENVGYVSWYQQKPGQPPKLLIYGASNRYTGVPDRFSGSGSATDFTLTISSLQAEDVAVYHCGQSYSYPLTFGQGTKLEIKRTVAAPSVFIFPPSDEQLKSGTASVVCLLNNFYPREAKVQWKVDNALQSGNSQESVTEQDSKDSTYSLSSTLTLSKADYEKHKVYACEVTHQGLSSPVTKSFNRGEC | 0.61 nM | 4910 | 1.01 nM | 0.000921 s⁻¹ | 914000 M⁻¹ s⁻¹
hu30L1H6 (antibody, human IgG1, kappa, V domains shown) VH: EVRLVQSGAEVKKPGASVKVSCKASGYTFTDYYMNWVRQAPGQSLEWMGIINPYNVDTSYNQKFRGRVTLTVDKSASTAYMELSSLRSEDTAVYYCARYHYGPHLEGYFDVWGQGTTVTVSS VL: DIVMTQSPDSLAVSLGERATINCKASENVGYVSWYQQKPGQPPKLLIYGASNRYTGVPDRFSGSGSGTDFTLTISSLQAEDVAVYYCGQSYSYPLTFGQGTKLEIKR | 0.56 nM | 5750 | 1.38 nM | 0.00143 s⁻¹ | 1.04e+06 M⁻¹ s⁻¹
hu30L1H3 (antibody, human IgG1, kappa, V domains shown) VH: EVRLVQSGAEVKKPGASVKVSCKASGYTFTDYYMNWVRQAPGQSLEWMGIINPYQGDTSYNQKFRGRVTLTVDKSASTAYMELSSLRSEDTAVYYCARYHYGPHLEGYFDVWGQGTTVTVSS VL: DIVMTQSPDSLAVSLGERATINCKASENVGYVSWYQQKPGQPPKLLIYGASNRYTGVPDRFSGSGSGTDFTLTISSLQAEDVAVYYCGQSYSYPLTFGQGTKLEIKR | 0.75 nM | 5560 | 1.99 nM | 0.00185 s⁻¹ | 929000 M⁻¹ s⁻¹
hu30L2H3 (antibody, human IgG1, kappa, V domains shown) VH: EVRLVQSGAEVKKPGASVKVSCKASGYTFTDYYMNWVRQAPGQSLEWMGIINPYQGDTSYNQKFRGRVTLTVDKSASTAYMELSSLRSEDTAVYYCARYHYGPHLEGYFDVWGQGTTVTVSS VL: DIVMTQSPDSLAVSLGERATINCKASENVGYVSWYQQKPGQPPKLLIYGASNRYTGVPDRFSGSGSATDFTLTISSLQAEDVAVYHCGQSYSYPLTFGQGTKLEIKR | 0.59 nM | 4720 | 1.41 nM | 0.00138 s⁻¹ | 981000 M⁻¹ s⁻¹
hu30L1H1 (antibody, human IgG1, kappa, V domains shown) VH: EVQLVQSGAEVKKPGASVKVSCKASGYTFTDYYMNWVRQAPGQSLEWMGIINPYNGDTSYNQKFRGRVTITVDKSASTAYMELSSLRSEDTAVYYCARYHYGPHLEGYFDVWGQGTTVTVSS VL: DIVMTQSPDSLAVSLGERATINCKASENVGYVSWYQQKPGQPPKLLIYGASNRYTGVPDRFSGSGSGTDFTLTISSLQAEDVAVYYCGQSYSYPLTFGQGTKLEIKR | 0.74 nM | 5870 | 0.919 nM | 0.000787 s⁻¹ | 857000 M⁻¹ s⁻¹
hu30L1H2 (antibody, human IgG1, kappa) heavy: not shown light: DIVMTQSPDSLAVSLGERATINCKASENVGYVSWYQQKPGQPPKLLIYGASNRYTGVPDRFSGSGSGTDFTLTISSLQAEDVAVYYCGQSYSYPLTFGQGTKLEIKRTVAAPSVFIFPPSDEQLKSGTASVVCLLNNFYPREAKVQWKVDNALQSGNSQESVTEQDSKDSTYSLSSTLTLSKADYEKHKVYACEVTHQGLSSPVTKSFNRGEC | 0.86 nM | 6050 | 1.32 nM | 0.00131 s⁻¹ | 989000 M⁻¹ s⁻¹
hu30L1H4 (antibody, human IgG1, kappa, V domains shown) VH: EVRLVQSGAEVKKPGASVKVSCKASGYTFTDYYMNWVRQAPGQSLEWMGIINPYSGDTSYNQKFRGRVTLTVDKSASTAYMELSSLRSEDTAVYYCARYHYGPHLEGYFDVWGQGTTVTVSS VL: DIVMTQSPDSLAVSLGERATINCKASENVGYVSWYQQKPGQPPKLLIYGASNRYTGVPDRFSGSGSGTDFTLTISSLQAEDVAVYYCGQSYSYPLTFGQGTKLEIKR | 0.57 nM | 5360 | 1.28 nM | 0.00116 s⁻¹ | 905000 M⁻¹ s⁻¹
hu30L2H4 (antibody, human IgG1, kappa, V domains shown) VH: EVRLVQSGAEVKKPGASVKVSCKASGYTFTDYYMNWVRQAPGQSLEWMGIINPYSGDTSYNQKFRGRVTLTVDKSASTAYMELSSLRSEDTAVYYCARYHYGPHLEGYFDVWGQGTTVTVSS VL: DIVMTQSPDSLAVSLGERATINCKASENVGYVSWYQQKPGQPPKLLIYGASNRYTGVPDRFSGSGSATDFTLTISSLQAEDVAVYHCGQSYSYPLTFGQGTKLEIKR | 0.54 nM | 5440 | 1.07 nM | 0.00104 s⁻¹ | 966000 M⁻¹ s⁻¹
hu30L2H1 (antibody, human IgG1, kappa, V domains shown) VH: EVQLVQSGAEVKKPGASVKVSCKASGYTFTDYYMNWVRQAPGQSLEWMGIINPYNGDTSYNQKFRGRVTITVDKSASTAYMELSSLRSEDTAVYYCARYHYGPHLEGYFDVWGQGTTVTVSS VL: DIVMTQSPDSLAVSLGERATINCKASENVGYVSWYQQKPGQPPKLLIYGASNRYTGVPDRFSGSGSATDFTLTISSLQAEDVAVYHCGQSYSYPLTFGQGTKLEIKR | 0.89 nM | 5740 | 0.658 nM | 0.000571 s⁻¹ | 867000 M⁻¹ s⁻¹
